# Test results from patent US8394607B2, “Anti-CD22 antibodies and immunoconjugates and methods of use” (Genentech, Inc., priority 2006, dated 2013).
# Where “and” joins values, the source holds several entries; their conditions need not be identical. Equal entries are not always repeated.
# T1: human CD22-beta-ECD-His tagged soluble antigen (Homo sapiens, UniProt P20273, A486R/Y639H)
# T1 sequence (P20273 22-681 A486R/Y639H): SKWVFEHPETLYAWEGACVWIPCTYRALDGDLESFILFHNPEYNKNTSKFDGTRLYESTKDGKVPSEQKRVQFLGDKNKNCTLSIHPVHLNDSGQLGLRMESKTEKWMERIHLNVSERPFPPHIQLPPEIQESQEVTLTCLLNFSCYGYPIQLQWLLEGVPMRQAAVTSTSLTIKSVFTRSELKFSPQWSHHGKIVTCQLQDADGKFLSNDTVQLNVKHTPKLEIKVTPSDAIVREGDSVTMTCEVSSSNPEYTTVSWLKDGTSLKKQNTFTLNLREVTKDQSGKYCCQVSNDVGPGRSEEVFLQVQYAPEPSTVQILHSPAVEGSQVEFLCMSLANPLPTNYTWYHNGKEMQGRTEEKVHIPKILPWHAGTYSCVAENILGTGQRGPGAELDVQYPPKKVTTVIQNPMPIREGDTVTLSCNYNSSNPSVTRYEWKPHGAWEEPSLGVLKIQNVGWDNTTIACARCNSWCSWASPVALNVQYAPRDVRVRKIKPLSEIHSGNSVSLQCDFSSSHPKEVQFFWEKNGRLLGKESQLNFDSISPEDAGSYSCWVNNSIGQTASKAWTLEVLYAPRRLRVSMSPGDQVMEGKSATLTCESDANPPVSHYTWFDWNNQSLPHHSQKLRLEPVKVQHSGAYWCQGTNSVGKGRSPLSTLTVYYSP
# Columns and labels:
# Granta-519 cells = test: Granta-519 xenograft tumor volume reduction; assay type: in vivo, SCID mice; settings: Table 14 study, FIG. 19, 100 μg/m^2 drug at Day 0
# Experimental: The ability of the thiomab drug conjugates prepared according to Example 11 to reduce B-cell tumor volume in xenograft models was tested according to the procedure disclosed in Example 9, herein. To SCID mice having Granta-519 cell xenograft tumors, control and anti-CD22 humanized 10F4v3 thiomab drug conjugates were administered at Day 0 in the doses shown in Table 14, below. The control HC(A118C) thiomab was anti-HER2 4D5 antibody.
# Additional thiomab drug conjugates were tested in Granta-519 xenografts in CB17 SCID mice using the same protocol, although different drug doses were tested. The control antibody or control thiomab was anti-HER24D5 antibody or HC(A118C) thiomab.
# DoHH2 cells = test: DoHH2 xenograft tumor volume reduction; assay type: in vivo; settings: Table 16 study; follicular lymphoma DOHH2 xenograft, CB17 SCID mice; 600 or 300 μg/m^2
# From the text: In a similar study, using the same xenograft study protocol as disclosed in the above examples, varying the TDCs and doses administered, the efficacy of TDCs in follicular lymphoma DOHH2 xenografts in CB17 SCID mice was studied.
# [1] = target: T1, human CD22-beta-ECD-His tagged soluble antigen; test: BIACORE surface plasmon resonance binding to soluble CD22 ECD; settings: BIACORE 3000, 25° C., antibody coupled to chip, soluble CD22 ECD injected; one-to-one Langmuir model
# Experimental: The binding affinity of murine and humanized 10F4 antibody for soluble CD22 extracellular domain (ECD) was determined by surface plasmon resonance measurement using a BIACORE® 3000 system (Biacore, Inc., Piscataway, N.J.). Briefly, carboxymethylated dextran biosensor chips (CMS, Biacore Inc.) were activated with N-ethyl-N′-(3-dimethylaminopropyl)-carbodiimide hydrochloride (EDC) and N-hydroxysuccinimide (NHS) according to the supplier's instructions. These activated chips were coated with anti-CD22 IgG1 antibody 10F4 (murine or humanized) by dilution to 5 μg/ml with 10 mM sodium acetate, pH 4.8, before injection at a flow rate of 5 μl/minute to achieve approximately 500 response units (RU) of coupled antibody. Next, 1M ethanolamine was injected to block unreacted groups. […] Association rates (kon) and dissociation rates (koff) were calculated using a simple one-to-one Langmuir binding model (BIAevaluation Software version 3.2). The equilibrium dissociation constant (Kd) was calculated as the ratio koff/kon. Anti-CD22 antibody, RFB4, was used as a control (Chemicon International, Inc., Temecula, Calif., catalog no. CBL147).
# BJAB-luc cells = test: BJAB-luc xenograft tumor volume reduction; assay type: in vivo, SCID mice; settings: single I.V. treatment, 32 days
# Experimental: Sixty-five SCID mice were injected with 2×10^7 BJAB-luc cells subcutaneously in a volume of 0.2 ml per mouse in the flank. Cells were suspended in HBSS. When the mean tumor size reached 100-200 mm^3, mice were randomly grouped into four groups of 9 mice each and given a single I.V. treatment (via the tail vein) of the anti-CD22 or control antibody indicated in Table 4, below.
# Mean tumor volume was monitored in each treatment group for 32 days post-antibody injection. Tumor measurements were taken with calipers. Efficacy of the toxin-conjugated anti-CD22 antibodies was determined by comparison to the control and unconjugated antibodies. […]
# [2] = test system: cynomolgus monkey (cyno) CD22 expressed on the surface of CHO cells; test: Cell-based competitive binding assay with 125I antibody, Scatchard analysis; settings: 4 hours at 4° C.
# Experimental: Briefly, CHO cells stably expressing full length human CD22 (SEQ ID NO:27) or cynomolgus monkey (cyno) CD22 (SEQ ID NO:31). […] A cell-based, competitive binding assay was performed using serially diluted, unlabeled anti-CD22 antibody. Antibodies were allowed to bind to the cells for 4 hours at 4° C. Binding affinity, KD, of the antibodies was determined in accordance with standard Scatchard analysis performed utilizing a non-linear curve fitting program (see, for example, Munson et al., Anal Biochem, 107: 220-239, 1980).
# [3] = Table 4 study, 200 μg/m^2 DM1 (naked antibody 3.4 mg/kg)
# [4] = Table 5 study, 200 μg/m^2 DM1 (naked antibody 4.5 mg/kg)
# Chain of cynomolgus monkey (cyno) CD22 expressed on the surface of CHO cells (as listed by the source): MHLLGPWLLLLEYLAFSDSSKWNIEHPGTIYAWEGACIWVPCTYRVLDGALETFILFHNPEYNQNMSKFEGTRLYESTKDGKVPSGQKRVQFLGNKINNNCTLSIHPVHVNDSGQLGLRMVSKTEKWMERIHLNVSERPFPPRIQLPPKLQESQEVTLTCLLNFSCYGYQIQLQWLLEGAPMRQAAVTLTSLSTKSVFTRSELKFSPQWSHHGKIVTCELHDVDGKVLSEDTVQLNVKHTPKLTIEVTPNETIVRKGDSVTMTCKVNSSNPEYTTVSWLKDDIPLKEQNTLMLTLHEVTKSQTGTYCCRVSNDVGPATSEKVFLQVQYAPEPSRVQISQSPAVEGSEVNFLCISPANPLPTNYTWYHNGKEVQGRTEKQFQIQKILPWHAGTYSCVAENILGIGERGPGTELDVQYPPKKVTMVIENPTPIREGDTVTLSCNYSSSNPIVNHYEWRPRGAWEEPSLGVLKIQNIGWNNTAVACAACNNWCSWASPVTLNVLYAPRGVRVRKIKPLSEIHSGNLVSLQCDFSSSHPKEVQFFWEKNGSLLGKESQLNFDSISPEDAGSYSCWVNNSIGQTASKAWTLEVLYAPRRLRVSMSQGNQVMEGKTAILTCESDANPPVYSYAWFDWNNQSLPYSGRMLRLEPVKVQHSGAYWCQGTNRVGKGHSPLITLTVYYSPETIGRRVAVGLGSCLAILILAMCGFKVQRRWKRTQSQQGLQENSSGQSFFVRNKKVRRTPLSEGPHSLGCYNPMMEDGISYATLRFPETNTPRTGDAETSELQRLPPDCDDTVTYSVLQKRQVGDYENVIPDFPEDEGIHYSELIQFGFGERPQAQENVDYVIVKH
molecule,measurement,setting,value
Thio 10F4v3-LC(V205C)-MCvcPAB-MMAE: conjugation of V205C thio hu LC-10F4v3 and MC-val-cit-PAB-MMAE,mean tumor volume,Granta-519 cells,reduction in mean tumor volume for the duration of the study
same,mean tumor volume,Granta-519 cells; listed as 10F4-LC-V210C-MCvcPAB-MMAE,decrease in tumor volume during the study
Thio 10F4v3-HC(A118C)-BMPEO-DM1: conjugation of A118C thio hu HC-10F4v3 and bmpeo-DM1,efficacy on mean tumor volume,DoHH2 cells,intermediate efficacy
"Chimeric 10F4: chimeric 10F4 anti-CD22 antibody (antibody, V domains shown) VH: QVQLQQSGPELVKPGASVKISCKASGYEFSRSWMNWVKQRPGQGREWIGRIYPGDGDTNYSGKFKGKATLTADKSSSTAYMQLSSLTSVDSAVYFCARDGSSWDWYFDVWGAGTTVTVSS VL: DILMTQTPLSLPVSLGDQASISCRSSQSIVHSNGNTFLEWYLQKPGQSPKLLIYKVSNRFSGVPDRFSGSGSGTDFTLKISRVEAEDLGVYYCFQGSQFPYTFGGGTKVEIK",koff/10^−4,[1],4.2
same,kon/10^5,[1],0.26
"Humanized 10F4v1: humanized 10F4 version 1, VH SEQ ID NO:16, VL SEQ ID NO:17, IgG1 (antibody, V domains shown, IgG1 constant regions; sequence is synthesized) VH: EVQLVESGGGLVQPGGSLRLSCAASGYEFSRSWMNWVRQAPGKGLEWVGRIYPGDGDTNYSGKFKGKATLTADKSSSTAYLQMNSLRAEDTAVYYCARDGSSWDWYFDYWGQGTLVTVSS VL: DIQMTQSPSSLSASVGDRVTITCRSSQSIVHSNGNTFLEWYQQKPGKAPKLLIYKVSNRFSGVPSRFSGSRSGTDFTLTISSLQPEDFATYYCFQGSQFPYTFGQGTKVEIKR",CR (number of animals attaining complete remission),BJAB-luc cells; [3],0
same,PR (number of animals with tumor regressed 50-99% from its initial volume),BJAB-luc cells; [3],0
same,TI (tumor incidence at the last time point; tumor-bearing animals / total animals),BJAB-luc cells; [3],9/9
same,Kd,[2]; listed as Hu 10F4v1,1.4 nM and 1.8 nM
"Humanized 10F4v2: humanized 10F4 version 2, N28V in HVR-L1, VH SEQ ID NO:16, VL SEQ ID NO:18, IgG1 (antibody, V domains shown, IgG1 constant regions; sequence is synthesized) VH: EVQLVESGGGLVQPGGSLRLSCAASGYEFSRSWMNWVRQAPGKGLEWVGRIYPGDGDTNYSGKFKGKATLTADKSSSTAYLQMNSLRAEDTAVYYCARDGSSWDWYFDYWGQGTLVTVSS VL: DIQMTQSPSSLSASVGDRVTITCRSSQSIVHSVGNTFLEWYQQKPGKAPKLLIYKVSNRFSGVPSRFSGSRSGTDFTLTISSLQPEDFATYYCFQGSQFPYTFGQGTKVEIKR",CR (number of animals attaining complete remission),BJAB-luc cells; [4],0
same,PR (number of animals with tumor regressed 50-99% from its initial volume),BJAB-luc cells; [4],0
same,TI (tumor incidence at the last time point; tumor-bearing animals / total animals),BJAB-luc cells; [4],9/9
same,Kd,[2],2.1 nM
